These results are taken from paper PMC3554688, “Potassium and Ionic Strength Effects on the Conformational and Thermal Stability of Two Aldehyde Dehydrogenases Reveal Structural and Functional Roles of K^+-Binding Sites” (PLoS ONE, 2013).

Broadly, the stoichiometry N is a count of units in the complex or per binding partner.

Data set [1] concerns the molecule itself. The data set can be described thus: dynamic light scattering; 20°C; K-buffer (non-salt buffer plus 250 mM KCl); 0.25 mg/ml enzyme.
Data set [2] deals with the molecule itself. The data set can be described thus: dynamic light scattering; 20°C; non-salt buffer (1 mM PIPES-TEA hydroxide pH 6.9, 1 mM EDTA, 0.5 mM DTT); 0.25 mg/ml enzyme; for SoBADH: dimers to tetramer.
Data set [3] concerns the molecule itself. The data set can be described thus: SEC; Superdex 200 HR 10/30, room temperature; K-buffer (1 mM PIPES-TEA hydroxide pH 6.9, 1 mM EDTA, 0.5 mM DTT, 250 mM KCl); 0.25 mg/ml protein.

B1: betaine aldehyde dehydrogenase from spinach (Spinacia oleracea) (enzyme)
chain: MAFPIPARQLFIDGEWREPIKKNRIPVINPSTEEIIGDIPAATAEDVEVAVVAARRAFRRNNWSATSGAHRATYLRAIAAKITEKKDHFVKLETIDSGKPFDEAVLDIDDVASCFEYFAGQAEALDGKQKAPVTLPMERFKSHVLRQPLGVVGLISPWNYPLLMATWKIAPALAAGCTAVLKPSELASVTCLEFGEVCNEVGLPPGVLNILTGLGPDAGAPLVSHPDVDKIAFTGSSATGSKVMASAAQLVKPVTLELGGKSPIVVFEDVDIDKVVEWTIFGCFWTNGQICSATSRLLVHESIAAEFVDKLVKWTKNIKISDPFEEGCRLGPVISKGQYDKIMKFISTAKSEGATILYGGSRPEHLKKGYYIEPTIVTDISTSMQIWKEEVFGPVLCVKTFSSEDEAIALANDTEYGLAAAVFSNDLERCERITKALEVGAVWVNCSQPCFVQAPWGGIKRSGFGRELGEWGIQNYLNIKQVTQDISDEPWGWYKS
notes: betaine aldehyde dehydrogenase (BADH, ALDH10) of Spinacia oleracea; recombinant; Homodimer in K-buffer; associates into tetramers in the non-salt buffer; also called SoBADH; ALDH10; source: E. coli, purified to homogeneity
Take B1: the “stoichiometry N” value in data set [1] was found to be 2; in data set [2], 4.

B2: betaine aldehyde dehydrogenase from Pseudomonas aeruginosa (enzyme)
chain: MARFEEQKLYIGGRYVEASSGATFETINPANGEVLAKVQRASREDVERAVQSAVEGQKVWAAMTAMQRSRILRRAVDILRERNDELAALETLDTGKPLAETRSVDIVTGADVLEYYAGLVPAIEGEQIPLRETSFVYTRREPLGVVAGIGAWNYPVQIALWKSAPALAAGNAMIFKPSEVTPLTALKLAEIYTEAGVPDGVFNVLTGSGREVGQWLTEHPLIEKISFTGGTSTGKKVMASASSSSLKEVTMELGGKSPLIIFPDADLDRAADIAVMANFFSSGQVCTNGTRVFIHRSQQARFEAKVLERVQRIRLGDPQDENTNFGPLVSFPHMESVLGYIESGKAQKARLLCGGERVTDGAFGKGAYVAPTVFTDCRDDMTIVREEIFGPVMSILVYDDEDEAIRRANDTEYGLAAGVVTQDLARAHRAIHRLEAGICWINTWGESPAEMPVGGYKQSGVGRENGLTTLAHYTRIKSVQVELGDYASVF
notes: betaine aldehyde dehydrogenase (BADH, ALDH9) of Pseudomonas aeruginosa; recombinant; Homotetramer; also called PaBADH; ALDH9; source: E. coli, purified to homogeneity
For B2, the “stoichiometry N” value in data set [3] is 4.
